# Where no end group is shown, it is not given here. The star is where a group is joined. FITC = O=C1OC2(c3ccc(O)cc3Oc3cc(O)ccc32)c2ccc(NC(=S)*)cc21
# B1: fluoresceinyl-labeled peptide GPM6B(112-127) (peptide, UniProt Q13491-1 112-127, looked up)
# peptide: {FITC}-TTSAVKELHGEFKTTA
# notes: GPM6B cytoplasmic loop, residues 112-127; numbers count on: UniProtKB entry Q13491-1; also called FITC-labeled GPM6B peptide; source: synthetic peptide
# How the values were obtained:
# [1] = target: fluoresceinyl-labeled peptide of PLP1; assay: other fluorescence titration; 0.5 µM fluoresceinyl-labeled peptide titrated with recombinant Nef(2-210); compared with a buffer control titration; fit of a simple bimolecular model with ligand depletion
# [2] = target: T1, recombinant HIV-1 SF2 Nef(2-210) protein (HIV-1 isolate SF2, UniProt P03407 2-210); assay: as above; conditions: both partners purified
# T1 construct: Nef protein of HIV-1 isolate SF2, residues 2-210; also called purified Nef protein; source: recombinant, purified, prepared as described in [68]
# T1 sequence (P03407 2-210): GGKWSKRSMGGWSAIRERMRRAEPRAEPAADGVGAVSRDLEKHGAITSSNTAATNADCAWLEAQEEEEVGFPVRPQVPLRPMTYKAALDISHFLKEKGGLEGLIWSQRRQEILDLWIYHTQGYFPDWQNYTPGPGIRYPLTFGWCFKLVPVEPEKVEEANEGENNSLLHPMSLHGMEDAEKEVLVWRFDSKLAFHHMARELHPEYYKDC
Molecule,Kd [1] [nM],Kd [2] [nM]
recombinant HIV-1 SF2 Nef(2-210) protein (from UniProt P03407 2-210) (natural protein),710,
B1,,640 ± 60
